Consider one molecule from patent publication US20240360229A1.

This assay addresses human CCR8 (human) (UniProt P51685). Description: cell-based or functional assay.

human CCR8 (human), sequence (P51685 whole entry): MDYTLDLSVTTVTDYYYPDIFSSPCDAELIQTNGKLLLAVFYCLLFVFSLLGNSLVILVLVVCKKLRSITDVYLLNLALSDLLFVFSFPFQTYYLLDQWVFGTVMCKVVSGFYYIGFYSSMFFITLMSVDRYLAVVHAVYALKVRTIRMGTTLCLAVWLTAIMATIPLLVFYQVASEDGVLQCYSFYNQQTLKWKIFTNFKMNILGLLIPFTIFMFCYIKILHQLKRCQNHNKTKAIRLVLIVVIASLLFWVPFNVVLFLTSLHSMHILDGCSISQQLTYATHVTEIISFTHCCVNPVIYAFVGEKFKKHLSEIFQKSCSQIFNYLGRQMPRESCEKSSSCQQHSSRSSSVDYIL

B1: control antibody (BD, Cat. #433H) (antibody, from another filing, V domains shown)
VH: EVQLVETGGGLVQPKGSLRLSCAASGFPFNTFAMNWVRQAPGKGLEWLARIRSKSNNYATYYADSVKDRFTISRDDSRRMLYLLMNNVKFEDTAIYYCVRGKENNYGYAMDYWGQGTSVTVSS
VL: DIVMTQAAPSVPVTPGESVSISCRSSQSLLHSNGNTYLYWFLQRPGQSPQLLIYRMSNLASGVPDRFSGSGSGTAFTLRISRVEAEDVGVYYCMQHLEYPFTFGIGTKLELKR
In turn, B1 displayed an IC50 of inhibition of CCL1-mediated activation of CCR8 (Ca2+ influx, FLIPR, CHO/hCCR8.Gna15 cells) of 8.4 nM.
